Test results as given in US11857609B2, “Ocular delivery of cell permeant therapeutics for the treatment of retinal edema” (The Trustees of Columbia University in the City of New York, dated 2024).

How the values were obtained:
[1] = biological target: T1, activated (cleaved) caspase-9 from mouse retina (mouse, UniProt Q8C3Q9); experiment: co-immunoprecipitation from mouse retina lysates after RVO and Pen1-XBIR3: anti-His IP, western blot for clCasp9, 24 h
From the text: (§1) To show target engagement, after RVO, mice were given Penl-XBIR3 and retinas were harvested and immunoprecipitated with anti-His followed by western blot for clCasp9 (FIG. 5, right panel).

[2] = biological target: T1, activated (cleaved) caspase-9 from …; experiment: co-immunoprecipitation from mouse retina lysates after RVO and Pen1-XBIR3: anti-His IP, western blot for clCasp9, 4 h
From the text: as §1

B1: Penetratin1-XBIR3 conjugate (other)
chain 1: CRQIKIWFQNRRMKWKK
chain 2: MGSSHHHHHHSSGLVPRGSHMSTNTCLPRNPSMADYEARIFTFGTWIYSVNKEQLARAGFYTDWALGEGDKVKCFHCGGGLRPSEDPWEQHARWYPGCRYLLEQRGQEYINNIHLTHS
modifications: N-terminal C(NPys) as printed; linked to XBIR3 by a disulfide bond (-s-s-); linked to Penetratin1 by a disulfide bond
[1]
  fold increase in binding: 45 fold
[2]
  fold increase in binding: 21 fold
